Where a chain is given by its changes, count along the chain named. Values belong to the molecule of their own block, whether it stands above or below them.
How the values were obtained:
[1] = target: DdrB R83A mutant with N-terminal 6His tag (Deinococcus radiodurans) (UniProt Q9RY80); experiment: AUC; sedimentation velocity, 20°C, 42 krpm, 100 mM KCl, 20 mM Tris pH 8.0, loading concentrations 10 µM to 0.64 mM, absorbance and interference optics, no DNA; pentamer and assemblies of pentamers
[2] = target: DdrB E51A mutant with N-terminal 6His tag (Deinococcus radiodurans) (UniProt Q9RY80); experiment: as above
[3] = target: the molecule itself; experiment: crystal structure; 740 µM DdrBDr with 160 µM 50b poly dT, hanging drop at 20°C; 2.30 Å; pentamer in the asymmetric unit, pentamer-pentamer interface by crystallographic symmetry
DdrB1-144 [4] = target: T1, DdrB1-144 (Deinococcus radiodurans, UniProt Q9RY80 1-144); experiment: fluorescence anisotropy; per pentamer, A+B=AB model; FP: 20 mM Tris pH 8.0, 100 mM KCl, 200 nM DNA; EMSA: same plus 15% glycerol, 10 uM DNA; temperature not stated; conditions: protein: recombinant; tags: N-terminal 6His (pET151, not cleaved); chain copies: 5; label: 5' 6-FAM
T1 sequence: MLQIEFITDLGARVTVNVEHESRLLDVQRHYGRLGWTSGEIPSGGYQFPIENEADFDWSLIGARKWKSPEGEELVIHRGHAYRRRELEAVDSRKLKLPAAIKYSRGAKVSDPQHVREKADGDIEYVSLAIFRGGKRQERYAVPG

DdrB W66A = target: T2, DdrB W66A (Deinococcus radiodurans, UniProt Q9RY80 1-144, W66A); experiment: fluorescence anisotropy; per pentamer; saturating anisotropy fixed to wild-type value; FP: 20 mM Tris pH 8.0, 100 mM KCl, 200 nM DNA; EMSA: same plus 15% glycerol, 10 uM DNA; temperature not stated; conditions: protein: recombinant; tags: N-terminal 6His; chain copies: 5; label: 5' 6-FAM
T2 sequence: T1 sequence with W66A

DdrB E51A [5] = target: T3, DdrB E51A (Deinococcus radiodurans, UniProt Q9RY80 1-144, E51A); experiment: fluorescence anisotropy; 3 uM pentamer; full DNA binding activity retained; FP: 20 mM Tris pH 8.0, 100 mM KCl, 200 nM DNA; EMSA: same plus 15% glycerol, 10 uM DNA; temperature not stated; conditions: protein: recombinant; tags: N-terminal 6His; chain copies: 5; label: 5' 6-FAM
T3 sequence: T1 sequence with E51A

DdrB1-144 [6] = target: T1, DdrB1-144; experiment: EMSA; pentamer, decamer and penta-decamer complexes; 10 uM DNA; FP: 20 mM Tris pH 8.0, 100 mM KCl, 200 nM DNA; EMSA: same plus 15% glycerol, 10 uM DNA; temperature not stated; conditions: protein: recombinant; tags: N-terminal 6His (pET151, not cleaved); chain copies: 5
DdrB E51A [7] = target: T3, DdrB E51A; experiment: EMSA; single pentamer-DNA complex only, no higher-order shifts; 10 uM DNA; FP: 20 mM Tris pH 8.0, 100 mM KCl, 200 nM DNA; EMSA: same plus 15% glycerol, 10 uM DNA; temperature not stated; conditions: protein: recombinant; tags: N-terminal 6His; chain copies: 5
DdrB1-144, tag removed = target: T4, DdrB1-144, tag removed (Deinococcus radiodurans, UniProt Q9RY80 1-144); experiment: X-ray crystallography 2.30 A; MES pH 5.6, KCl, 10 mM MgCl2, PEG 8000; FP: 20 mM Tris pH 8.0, 100 mM KCl, 200 nM DNA; EMSA: same plus 15% glycerol, 10 uM DNA; temperature not stated; conditions: protein: recombinant; tags: 6His removed by TEV; chain copies: 5
T4 sequence: T1 sequence

percent of the total signal from the pentamer [1]: 92%
stoichiometry N [1]: 5
Molecule: DdrB R83A mutant with N-terminal 6His tag (from UniProt Q9RY80 1-144) (domain or fragment)

percent of the total signal from the pentamer [2]: 88%
stoichiometry N [2]: 5
Molecule: DdrB E51A mutant with N-terminal 6His tag (from UniProt Q9RY80 1-144) (domain or fragment)

B1: DdrB1-144 from Deinococcus radiodurans, 6His tag removed (protein used in crystallography) (domain or fragment, UniProt Q9RY80 1-144, looked up)
chain: T1 sequence
notes: DdrB, Deinococcus radiodurans, residues 1-144 (stop codon introduced following residue 144), construct MJ4748 in pET151/D-Topo; Pentamer; Tag cleaved with TEV protease; also called DdrBDr; not shown: His6, N-terminal, cleaved
stoichiometry N [3]: 5

Molecule: TTTTTTTTTTTTTTTTTTTT (ssDNA) [20b poly dT]
Kd (DdrB1-144 [4]): 3.6 µM
Kd (DdrB W66A): 51 µM
binding result (DdrB E51A [5]): binds

Molecule: TTTTTTTTTTTTTTTTTTTTTTTTTTTTTTTTTTTTTTTTTTTTTTTTTT (ssDNA) [50b poly dT]
binding result (DdrB1-144 [6]): binds
binding result (DdrB E51A [7]): binds
binding result (DdrB1-144, tag removed): binds

— PMC3834827, “Crystal structure of the DdrB/ssDNA complex from Deinococcus radiodurans reveals a DNA binding surface involving higher-order oligomeric states” (Nucleic Acids Research, 2013)
